Experimental findings from US20210221873A1 (Dana-Farber, published 2021) are described below.

What all share (experiment): FACS on transfected 293T cells
For assay [1], the target named is full-length H2 HA of H2-JP57 (A/Japan/305/57 (H2N2)) (influenza A virus A/Japan/305/57 (H2N2), UniProt P03451 16-562).
Assay [2] concerns the target full-length H1 HA of H1-SC1918 (A/South Carolina/1/1918 (H1N1)) (influenza A virus A/South …, UniProt Q9WFX3 18-566).
Assay [3] has as its target full-length H7 HA of H7-FP34 (A/FPV/Rostock/34 (H7N1)) (influenza A virus A/FPV/Rostock/34 …, UniProt P03459 19-563).
For assay [4], the target named is full-length H8 HA of H8-ON68 (A/turkey/Ontario/6118/68) (influenza A virus …, UniProt P03456 16-565).
Sequence of full-length H8 HA of H8-ON68 (A/turkey/Ontario/6118/68) (P03456 16-565 limits assumed): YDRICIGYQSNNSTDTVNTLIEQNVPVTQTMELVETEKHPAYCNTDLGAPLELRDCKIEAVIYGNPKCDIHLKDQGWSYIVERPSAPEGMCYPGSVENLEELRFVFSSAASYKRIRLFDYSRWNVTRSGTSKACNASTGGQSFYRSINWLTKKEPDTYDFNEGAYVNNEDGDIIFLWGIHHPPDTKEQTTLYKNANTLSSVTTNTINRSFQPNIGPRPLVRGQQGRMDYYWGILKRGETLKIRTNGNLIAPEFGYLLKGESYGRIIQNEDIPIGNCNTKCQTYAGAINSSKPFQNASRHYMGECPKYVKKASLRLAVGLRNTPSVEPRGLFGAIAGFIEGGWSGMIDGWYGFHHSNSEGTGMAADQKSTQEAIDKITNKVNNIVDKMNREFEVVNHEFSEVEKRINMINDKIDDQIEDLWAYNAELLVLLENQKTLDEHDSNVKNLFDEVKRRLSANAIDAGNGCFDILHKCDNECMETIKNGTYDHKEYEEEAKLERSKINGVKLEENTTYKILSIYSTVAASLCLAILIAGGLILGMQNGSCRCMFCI
For assay [5], the target named is full-length H14 HA of H14-CU82 (A/mallard/Gurjev/263/82 (H14N5)) (influenza A virus …, UniProt P26136 18-568).
Sequence of full-length H14 HA of H14-CU82 (A/mallard/Gurjev/263/82 (H14N5)) (P26136 18-568 limits assumed): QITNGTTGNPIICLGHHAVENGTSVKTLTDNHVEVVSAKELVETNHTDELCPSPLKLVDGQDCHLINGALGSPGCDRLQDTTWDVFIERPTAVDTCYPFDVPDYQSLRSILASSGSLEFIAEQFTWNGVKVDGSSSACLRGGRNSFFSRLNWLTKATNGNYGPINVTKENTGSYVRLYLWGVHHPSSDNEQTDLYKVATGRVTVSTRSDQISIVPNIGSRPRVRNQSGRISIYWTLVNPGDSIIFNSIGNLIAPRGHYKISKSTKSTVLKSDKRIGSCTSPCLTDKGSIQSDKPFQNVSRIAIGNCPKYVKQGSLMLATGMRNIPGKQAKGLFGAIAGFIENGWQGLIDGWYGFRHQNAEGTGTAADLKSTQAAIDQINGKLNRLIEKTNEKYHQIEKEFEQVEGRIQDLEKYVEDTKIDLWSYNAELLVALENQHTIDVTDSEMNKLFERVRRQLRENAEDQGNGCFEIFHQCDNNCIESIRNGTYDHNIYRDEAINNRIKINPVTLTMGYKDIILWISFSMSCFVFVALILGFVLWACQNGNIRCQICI
Assay [6] deals with full-length H13 HA of H13-MD77 (A/Gull/MD/704/77 (H13N6)) (influenza A virus A/Gull/MD/704/77 …, UniProt P13103 19-566).
Sequence of full-length H13 HA of H13-MD77 (A/Gull/MD/704/77 (H13N6)) (P13103 19-566): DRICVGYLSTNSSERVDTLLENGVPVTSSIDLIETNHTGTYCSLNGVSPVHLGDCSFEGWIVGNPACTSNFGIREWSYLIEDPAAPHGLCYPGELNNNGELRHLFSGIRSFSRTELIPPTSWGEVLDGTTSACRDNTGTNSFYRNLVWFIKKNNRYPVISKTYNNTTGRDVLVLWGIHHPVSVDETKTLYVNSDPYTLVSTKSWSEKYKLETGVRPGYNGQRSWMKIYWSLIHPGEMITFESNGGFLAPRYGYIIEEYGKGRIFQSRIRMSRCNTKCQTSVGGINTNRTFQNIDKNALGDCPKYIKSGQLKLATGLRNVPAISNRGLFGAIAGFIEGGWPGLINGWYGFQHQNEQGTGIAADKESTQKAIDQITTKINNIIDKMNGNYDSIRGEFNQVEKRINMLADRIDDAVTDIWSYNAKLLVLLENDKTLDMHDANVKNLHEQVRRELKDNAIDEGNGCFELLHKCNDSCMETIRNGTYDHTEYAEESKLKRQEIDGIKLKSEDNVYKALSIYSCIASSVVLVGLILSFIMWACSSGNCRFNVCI
The target in assay [7] is full-length H1 HA of H1-PR34 (A/Puerto Rico/8/34 (H1N1)) (influenza A virus A/Puerto Rico/8/34 …, UniProt P03452 18-565).
Sequence of full-length H1 HA of H1-PR34 (A/Puerto Rico/8/34 (H1N1)) (P03452 18-565): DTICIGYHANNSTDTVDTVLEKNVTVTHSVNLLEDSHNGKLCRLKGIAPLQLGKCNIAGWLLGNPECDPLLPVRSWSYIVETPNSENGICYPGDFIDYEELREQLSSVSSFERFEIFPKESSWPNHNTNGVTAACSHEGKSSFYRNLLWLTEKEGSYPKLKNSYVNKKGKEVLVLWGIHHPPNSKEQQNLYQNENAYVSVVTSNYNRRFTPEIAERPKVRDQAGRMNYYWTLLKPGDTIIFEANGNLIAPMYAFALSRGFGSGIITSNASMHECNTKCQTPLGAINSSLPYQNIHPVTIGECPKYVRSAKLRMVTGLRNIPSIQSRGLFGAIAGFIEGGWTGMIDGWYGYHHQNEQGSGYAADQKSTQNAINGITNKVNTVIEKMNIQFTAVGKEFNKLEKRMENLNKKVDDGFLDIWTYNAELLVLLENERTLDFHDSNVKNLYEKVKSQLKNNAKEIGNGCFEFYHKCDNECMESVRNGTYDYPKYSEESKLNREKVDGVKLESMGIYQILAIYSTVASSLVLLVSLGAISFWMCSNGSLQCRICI

Sequence of full-length H7 HA of H7-FP34 (A/FPV/Rostock/34 (H7N1)) (P03459 19-563): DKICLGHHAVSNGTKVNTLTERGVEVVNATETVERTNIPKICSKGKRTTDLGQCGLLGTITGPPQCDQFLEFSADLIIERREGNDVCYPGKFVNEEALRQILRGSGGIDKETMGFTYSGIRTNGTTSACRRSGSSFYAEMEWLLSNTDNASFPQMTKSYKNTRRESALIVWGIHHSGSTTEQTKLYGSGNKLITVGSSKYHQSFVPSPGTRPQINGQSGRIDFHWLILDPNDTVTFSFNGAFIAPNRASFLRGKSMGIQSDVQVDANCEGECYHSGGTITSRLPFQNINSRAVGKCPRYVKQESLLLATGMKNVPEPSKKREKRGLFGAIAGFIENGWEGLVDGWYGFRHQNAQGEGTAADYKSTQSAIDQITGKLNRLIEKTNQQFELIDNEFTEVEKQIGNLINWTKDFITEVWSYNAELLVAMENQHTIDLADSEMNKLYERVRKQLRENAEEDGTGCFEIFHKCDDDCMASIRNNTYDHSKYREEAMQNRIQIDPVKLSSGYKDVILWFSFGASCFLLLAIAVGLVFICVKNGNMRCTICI
Sequence of full-length H1 HA of H1-SC1918 (A/South Carolina/1/1918 (H1N1)) (Q9WFX3 18-566): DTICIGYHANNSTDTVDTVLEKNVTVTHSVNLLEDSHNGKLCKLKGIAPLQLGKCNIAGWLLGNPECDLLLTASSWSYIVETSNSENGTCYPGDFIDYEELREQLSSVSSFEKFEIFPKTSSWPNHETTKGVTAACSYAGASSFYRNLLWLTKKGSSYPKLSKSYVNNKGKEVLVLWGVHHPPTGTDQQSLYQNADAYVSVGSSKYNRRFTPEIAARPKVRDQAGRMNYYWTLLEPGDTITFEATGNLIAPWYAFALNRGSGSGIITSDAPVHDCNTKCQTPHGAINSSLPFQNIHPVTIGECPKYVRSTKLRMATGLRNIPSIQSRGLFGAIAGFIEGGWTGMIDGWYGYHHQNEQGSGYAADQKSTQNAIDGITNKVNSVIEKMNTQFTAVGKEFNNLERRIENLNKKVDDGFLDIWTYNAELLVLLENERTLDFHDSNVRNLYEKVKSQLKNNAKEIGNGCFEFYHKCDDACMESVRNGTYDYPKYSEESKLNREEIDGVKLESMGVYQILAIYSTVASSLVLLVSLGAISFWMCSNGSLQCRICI

B1: F10-IgG1 (antibody, V domains shown)
VH: QVQLVQSGAEVKKPGSSVKVSCTSSEVTFSSFAISWVRQAPGQGLEWLGGISPMFGTPNYAQKFQGRVTITADQSTRTAYMDLRSLRSEDTAVYYCARSPSYICSGGTCVFDHWGQGTLVTVSS
VL: QPGLTQPPSVSKGLRQTATLTCTGNSNNVGNQGAAWLQQHQGHPPKLLSYRNNDRPSGISERFSASRSGNTASLTITGLQPEDEADYYCSTWDSSLSAVVFGGGTKLTVL
For the molecule B1, the binding result is “binds” in assay [1]; “binds” in assay [2]; “no binding (tested: 10 µg/mL)” in assay [3]; “binds” in assay [4]; “no binding” in assay [5]; “binds” in assay [6]. The binding result in assay [7] is reported as “binds”.

B2: A66-IgG1 (antibody, V domains shown)
VH: QVQLVQSGAEVKKPGSSVKVSCKASGGPFSMTAFTWLRQAPGQGLEWMGGISPIFRTPKYAQKFQGRVTITADESTNTANMELTSLKSEDTAVYYCARTLSSYQPNNDAFAIWGQGTMVTVSS
VL: EIVLTQSPATLSLSPGERATLSCRASQSVSSYLAWYQQKPGQAPRLLIYDASNRATGIPARFSGSGSGTDFTLTISRLEPEDFAVYFCQQYGSSPQFGQGTRLEIK
On to B2, for which the binding result was “binds” in assay [1]; “binds” in assay [2]; “no binding (tested: 10 µg/mL)” in assay [3]; “binds” in assay [4]; “no binding” in assay [5]; “binds” in assay [6]. Moreover, in assay [7], the binding result is given as “binds”.

B3: D8-IgG1 (antibody, V domains shown)
VH: QVQLVQSGAEVKKPGSSVKVSCKASGGTFSAYAFTWVRQAPGQGLEWMGGITGMFGTANYAQKFQGRVTITADELTSTAYMELSSLTSEDTALYYCARGLYYYESSLDYWGQGTLVTVSS
VL: QSVLTQPPSASGSPGQSVTISCTGTSSDVGGYNSVSWYQQHPGKAPKLMIYEVTKRPSGVPDRFSASKSGNTASLTVSGLQAEDEADYFCCSYAGHSAYVFGTGTKVTVL
As for B3, the binding result in assay [1] is recorded as “binds”; in assay [2] it was “binds”; in assay [3], “no binding (tested: 10 µg/mL)”; in assay [4] it was “binds”; in assay [5] it was “no binding”; in assay [6] it was “binds”. For the same molecule, the binding result in assay [7] is “binds”.
